# Measured values published in the nanobody polyreactivity screen of Harvey et al. (2022).
# Assay: yeast display, Sf9 membrane polyspecificity reagent, FACS + sequencing; frameworks hold sequencing errors
# In short: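 Synthetic nanobody libraries on Saccharomyces cerevisiae BJ5465 were galactose-induced for 36–48 hours, stained 1 hour at 4 °C with 10% biotinylated, detergent-solubilized Sf9 membrane reagent and enriched on streptavidin microbeads. FACS then separated cells into low and high (top ~1%) gates by anti-HA (expression) and streptavidin (reagent binding) fluorescence. Genes were colony-PCR amplified, MiSeq 2 × 250 sequenced and CDR-length filtered. A clone's polyreactivity label is that of its gate of origin.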
row,Sequence,polyreactivity (PSR sort gate)
1,QVQLVESGGGLVQAGGSLRLSCAASGFIFYDYAMGWYRQAPGKERELVAAITVDGGTTYYADSVKGRFTISRDNAKNTVYLQMNSLKPEDTAVYYCAADTYYGFDSNYEYCGQGTQVTVSS,low polyreactivity
2,QVQLVESGGGLVQAGGSLRLSCAASGFIFYDYAMGWYRQATGKERELVAGITDSGGSTSYADSVKGRFTISRDNAKNTDYLQMNSLKPEDTAVYYCAADNYVRAGINYDYWGQGTQVTVSS,low polyreactivity
3,QVQLVESGGGLVQAGGSLRLSCAASGFIFYEYAMGWYRQATGKERELVAAITYSAGSTYYADSVKGRFTISRDNAKNTVYLQMNSLKPEDTAVYFCAKVDSEYRQVIQQEDDYWGQGTQVTVSS,low polyreactivity
4,QVQLVESGGGLVQAGGSLRLSCAASGFIFYFYAMGWYRQATGKEMELVAAISDGVSTYYADSVKGRFTISRDNAKNTVYLQMNCLKPEDTAVYYCAVSRGDDPEFDYWGQGTQVTVSS,low polyreactivity
5,QVQLVESGGGLVQAGGSLRLSCAASGFIFYGNAMAWSRQAPGKEREFVAAINGRGVSTYYADSVKGRFTISRDNAKNSDYLQMNSLKPEDTAVYYCNKVYWGRGPLEYWGQGTQVTVSS,high polyreactivity
6,QVQLVESGGGLVQAGGSLRLSCAASGFIFYGNTMGWYRQAPGKERELVAAISGSTGGTYYADSVKGRFTISRDNAKNTVYLQMNSLKPEDTAVYYCAAVVPWYASYSRYYYWGQGTQVTVSS,high polyreactivity
7,QVQLVESGGGLVQAGGSLRLSCAASGFIFYGNTMGWYRQAPGKERELVAAISWSGGTTYYADSVKGRFTISRDNAKNTVYLQMNSLKPEDTAVYYCNRAAFRYRYDYWGQGTQVTVSS,high polyreactivity
8,QVQLVESGGGLVQAGGSLRLSCAASGFIFYHYAMGWYRQAPGKERELVAAISWSGGSTYYADSVKGRFTISRDNAKNTVYLQMNSLKPEDTAVYYCAAANTNRFPYGYWGQGTQVTVSS,high polyreactivity
9,QVQLVESGGGLVQAGGSLRLSCAASGFIFYINAMVWYRQAPGKERELVAAITNVGSTNYADSVKGRFTISRDNAKNTVYLQMNSLKPEDTAVYYCAAEKGLVALVYKYDYWGQGTQVTVSS,low polyreactivity
10,QVQLVESGGGLVQAGGSLRLSCAASGFIFYKNAKGWYRQAPGKERELVAAISQIGGTTYYADSVKGRFTISRDNAKNTVYVQMNSLKPEDTAVYYCAASRRVQSDYWGQGTQVTVSS,high polyreactivity
11,QVQLVESGGGLVQAGGSLRLSCAASGFIFYKYAKGWYRQAPGKEREFVAAITWSGGNTYYADSVKGRFTISRDNAKNTVYLQMNSLKPEDTAVYYCAARDSKWGQGTQVTVSS,low polyreactivity
12,QVQLVESGGGLVQAGGSLRLSCAASGFIFYLNVMGWYRQAPGKERELVATITSGGSTNYADSVKGRFTISRDNAKNTVYLQMNSLKPEDTAVYYCAARRGKSYYWYNYWGQGTQVTVSS,high polyreactivity
13,QVQLVESGGGLVQAGGSLRLSCAASGFIFYQYAMGWYRQAPGKERELVAAISKSGGNTYYADSVKGRFTISRDNAKNTVYLQMNSLKPEDTAVYYCAADRGQRGMYYWGQGSQVTVSS,high polyreactivity
14,QVQLVESGGGLVQAGGSLRLSCAASGFIFYQYAMGWYRQAPGKERELVATISFRGGRTYYADSVKGRFTISRDNAKNTVYLQMNSLKPEDTAVYYCNAKRVSSRFYKWDYYWGQGTQVTVSS,high polyreactivity
15,QVQLVESGGGLVQAGGSLRLSCAASGFIFYQYAMGWYRQAPGKERELVAVISRTGSTSYADSVKGRFTISRDNAKNTVYLQMNSLKPEDTAVYYCAARYYFYDYWGQGSQVTVSS,high polyreactivity
16,QVQLVESGGGLVQAGGSLRLSCAASGFIFYRNAMGWYRPAPGKERELVAAINRGGSTYYADSVKGRFTISRDNAKNTVYLQMNSLKPEDTAVYYCAAYHLRPSRYDYWGQGTQVTVSS,high polyreactivity
17,QVQLVESGGGLVQAGGSLRLSCAASGFIFYRNTMGWYRQAPGKERELVAAISVSGGSTNYADSVKGRFTISRDNAKNTVYLQMNSLKPEDTAVYYCAARVRDSLVYGGWDDYWGQGTQVTVSS,high polyreactivity
18,QVQLVESGGGLVQAGGSLRLSCAASGFIFYRYALGWYRQAPGKERELVAAISRSGGSTYYADSVKVRFTISRDNAKNTVYLQMNSLKPEDTAVYYCAVTGYWYYHDHYSYPSRYYYWGQGTQVTVSS,high polyreactivity
19,QVQLVESGGGLVQAGGSLRLSCAASGFIFYRYAMGWYRQAPGKERELVAAISGSGGRTYYADSVKGRFTISRDNAKNTVYLQMNSLKPEDTAVYYCAADKQAYVTDDYWGKGTQVTVSS,high polyreactivity
20,QVQLVESGGGLVQAGGSLRLSCAASGFIFYRYAMGWYRQAPGNERELVAAISSGGSTYYADSVKGRFTISRDNAKNTVYLQMNSLKPEDTAVYYCNAYHNYWRYRTDEMNYWGQGTQVTVSS,high polyreactivity
21,QVQLVESGGGLVQAGGSLRLSCAASGFIFYRYARGWYRQAPGQERELVAAITTSGARTYYADSVKGRFTISRDNAKNTVYLLMNSLKPEDTAGYSCAASPTPRVKMDYWGQGTQVTVSS,low polyreactivity
